Experimental data reported in patent publication US20180360972A1, “THERAPEUTIC COMPOUNDS” (REGENTS OF THE UNIVERSITY OF MINNESOTA, priority 2017, published 2018).

Molecular target: mMC4R-NanoLuc and mMC4R-HaloTag homodimer (mouse) (UniProt P56450)
Assay: cell-based or functional assay

Sequence of mMC4R-NanoLuc and mMC4R-HaloTag homodimer (mouse) (P56450 whole entry, chain 1 of 2): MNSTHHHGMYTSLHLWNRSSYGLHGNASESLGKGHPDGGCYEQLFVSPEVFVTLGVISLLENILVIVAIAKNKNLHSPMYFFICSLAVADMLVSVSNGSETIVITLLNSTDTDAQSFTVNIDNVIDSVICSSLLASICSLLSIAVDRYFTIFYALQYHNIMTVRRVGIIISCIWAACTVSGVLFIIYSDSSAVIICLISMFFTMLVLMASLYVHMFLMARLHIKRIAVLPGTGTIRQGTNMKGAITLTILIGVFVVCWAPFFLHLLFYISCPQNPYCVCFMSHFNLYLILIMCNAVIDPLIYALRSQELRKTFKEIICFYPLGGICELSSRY
Sequence of mMC4R-NanoLuc and mMC4R-HaloTag homodimer (mouse) (P56450 whole entry, chain 2 of 2): as the sequence (P56450 whole entry, chain 1 of 2) above

α-MSH (from UniProt P01189 138-150) (ligand)
reduction in BRET signal at 10 µM compared to basal signal: 15%
